Assay results published in US10500249B2, “Compositions and methods for preventing or treating diseases, conditions, or processes characterized by aberrant fibroblast proliferation and extracellular matrix deposition” (MOERAE MATRIX, INC., priority 2014, dated 2019).

Key:
Assay in all cases: Kinase Profiling Assay
Format in all cases: biochemical
Settings in all cases: 100 μM
[1] = molecular target: Abl(Y253F) (h) (Homo sapiens, UniProt P00519, Y253F)
How it was run: (§1)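 Measured twice per kinase, activity in presence of MK2 inhibitory peptide was calculated against a 100% activity control after radiometric phosphorylation of a cationic substrate, anionic filter capture and scintillation counting; one of 266 human kinases profiled for specificity.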

[2] = molecular target: T1, CHK1 (h) (Homo sapiens, UniProt O14757)
T1 construct: purchased Millipore
T1 sequence (O14757 1-476): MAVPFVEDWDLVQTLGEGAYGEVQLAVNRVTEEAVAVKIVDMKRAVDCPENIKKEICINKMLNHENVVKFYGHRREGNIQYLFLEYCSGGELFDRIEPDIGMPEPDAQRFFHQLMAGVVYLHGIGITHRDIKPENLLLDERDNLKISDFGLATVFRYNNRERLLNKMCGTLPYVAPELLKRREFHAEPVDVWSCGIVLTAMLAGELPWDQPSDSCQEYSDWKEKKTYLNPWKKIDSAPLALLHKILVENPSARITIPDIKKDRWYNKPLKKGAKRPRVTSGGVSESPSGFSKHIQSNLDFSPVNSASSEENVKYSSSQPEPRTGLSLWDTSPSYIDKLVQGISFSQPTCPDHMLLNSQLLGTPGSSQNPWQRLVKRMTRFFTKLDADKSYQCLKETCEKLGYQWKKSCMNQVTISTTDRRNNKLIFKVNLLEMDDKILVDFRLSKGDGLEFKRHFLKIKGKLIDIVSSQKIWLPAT
How it was run: as §1

[3] = molecular target: EphA5 (h) (Homo sapiens, UniProt P54756)
How it was run: as §1

[4] = molecular target: FGFR2 (h) (Homo sapiens, UniProt P21802)
How it was run: as §1

[5] = molecular target: Flt3 (h) (Homo sapiens, UniProt P36888)
How it was run: as §1

[6] = molecular target: Flt4 (h) (Homo sapiens, UniProt P35916)
How it was run: as §1

[7] = molecular target: T2, HIPK2 (h) (Homo sapiens, UniProt Q9H2X6)
T2 construct: purchased Millipore
How it was run: as §1

[8] = molecular target: T3, MKK6 (h) (Homo sapiens, UniProt P52564)
T3 construct: purchased Millipore
T3 sequence (P52564 1-334): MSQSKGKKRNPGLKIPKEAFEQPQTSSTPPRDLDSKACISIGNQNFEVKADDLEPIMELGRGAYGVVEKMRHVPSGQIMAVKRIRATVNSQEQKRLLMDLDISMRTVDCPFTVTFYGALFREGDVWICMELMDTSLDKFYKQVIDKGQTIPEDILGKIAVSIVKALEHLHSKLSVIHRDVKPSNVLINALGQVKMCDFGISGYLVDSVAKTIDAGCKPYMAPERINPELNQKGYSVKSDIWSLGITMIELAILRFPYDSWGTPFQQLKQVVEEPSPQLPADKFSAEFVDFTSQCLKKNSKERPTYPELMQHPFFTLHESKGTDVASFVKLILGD
How it was run: as §1

[9] = molecular target: Met(Y1248C) (h) (Homo sapiens, UniProt P08581, Y1230C)
How it was run: as §1

[10] = molecular target: T4, PKBβ (h) (Homo sapiens, UniProt P31751)
T4 construct: purchased Millipore
How it was run: as §1

[11] = molecular target: PKCθ (h) (Homo sapiens, UniProt Q04759)
How it was run: as §1

[12] = molecular target: ROCK-I (h) (Homo sapiens, UniProt Q13464)
How it was run: as §1

[13] = molecular target: ROCK-II (h) (Homo sapiens, UniProt O75116)
How it was run: as §1

[14] = molecular target: Tie2 (h) (Homo sapiens, UniProt Q02763)
How it was run: as §1

[15] = molecular target: TrkB (h) (Homo sapiens, UniProt Q16620)
How it was run: as §1

[16] = molecular target: T5, Txk (h) (Homo sapiens, UniProt P42681)
T5 sequence (P42681 1-527): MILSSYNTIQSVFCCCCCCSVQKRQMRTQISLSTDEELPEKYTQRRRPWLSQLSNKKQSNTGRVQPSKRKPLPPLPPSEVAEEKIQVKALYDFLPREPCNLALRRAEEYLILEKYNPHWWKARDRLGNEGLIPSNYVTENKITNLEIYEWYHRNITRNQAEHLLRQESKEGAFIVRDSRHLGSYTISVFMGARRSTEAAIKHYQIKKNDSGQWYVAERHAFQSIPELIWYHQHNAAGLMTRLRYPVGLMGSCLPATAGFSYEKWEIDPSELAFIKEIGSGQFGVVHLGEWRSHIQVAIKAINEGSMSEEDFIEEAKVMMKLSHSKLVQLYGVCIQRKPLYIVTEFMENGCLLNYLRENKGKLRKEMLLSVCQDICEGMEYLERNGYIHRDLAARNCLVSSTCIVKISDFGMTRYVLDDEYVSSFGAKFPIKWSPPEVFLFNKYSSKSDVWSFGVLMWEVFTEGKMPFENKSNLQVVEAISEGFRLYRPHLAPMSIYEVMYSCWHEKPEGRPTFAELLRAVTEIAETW
How it was run: as §1

[17] = molecular target: FGFR3 (h) (Homo sapiens, UniProt P22607)
How it was run: as §1

Sequence of ROCK-II (h) (O75116 whole entry): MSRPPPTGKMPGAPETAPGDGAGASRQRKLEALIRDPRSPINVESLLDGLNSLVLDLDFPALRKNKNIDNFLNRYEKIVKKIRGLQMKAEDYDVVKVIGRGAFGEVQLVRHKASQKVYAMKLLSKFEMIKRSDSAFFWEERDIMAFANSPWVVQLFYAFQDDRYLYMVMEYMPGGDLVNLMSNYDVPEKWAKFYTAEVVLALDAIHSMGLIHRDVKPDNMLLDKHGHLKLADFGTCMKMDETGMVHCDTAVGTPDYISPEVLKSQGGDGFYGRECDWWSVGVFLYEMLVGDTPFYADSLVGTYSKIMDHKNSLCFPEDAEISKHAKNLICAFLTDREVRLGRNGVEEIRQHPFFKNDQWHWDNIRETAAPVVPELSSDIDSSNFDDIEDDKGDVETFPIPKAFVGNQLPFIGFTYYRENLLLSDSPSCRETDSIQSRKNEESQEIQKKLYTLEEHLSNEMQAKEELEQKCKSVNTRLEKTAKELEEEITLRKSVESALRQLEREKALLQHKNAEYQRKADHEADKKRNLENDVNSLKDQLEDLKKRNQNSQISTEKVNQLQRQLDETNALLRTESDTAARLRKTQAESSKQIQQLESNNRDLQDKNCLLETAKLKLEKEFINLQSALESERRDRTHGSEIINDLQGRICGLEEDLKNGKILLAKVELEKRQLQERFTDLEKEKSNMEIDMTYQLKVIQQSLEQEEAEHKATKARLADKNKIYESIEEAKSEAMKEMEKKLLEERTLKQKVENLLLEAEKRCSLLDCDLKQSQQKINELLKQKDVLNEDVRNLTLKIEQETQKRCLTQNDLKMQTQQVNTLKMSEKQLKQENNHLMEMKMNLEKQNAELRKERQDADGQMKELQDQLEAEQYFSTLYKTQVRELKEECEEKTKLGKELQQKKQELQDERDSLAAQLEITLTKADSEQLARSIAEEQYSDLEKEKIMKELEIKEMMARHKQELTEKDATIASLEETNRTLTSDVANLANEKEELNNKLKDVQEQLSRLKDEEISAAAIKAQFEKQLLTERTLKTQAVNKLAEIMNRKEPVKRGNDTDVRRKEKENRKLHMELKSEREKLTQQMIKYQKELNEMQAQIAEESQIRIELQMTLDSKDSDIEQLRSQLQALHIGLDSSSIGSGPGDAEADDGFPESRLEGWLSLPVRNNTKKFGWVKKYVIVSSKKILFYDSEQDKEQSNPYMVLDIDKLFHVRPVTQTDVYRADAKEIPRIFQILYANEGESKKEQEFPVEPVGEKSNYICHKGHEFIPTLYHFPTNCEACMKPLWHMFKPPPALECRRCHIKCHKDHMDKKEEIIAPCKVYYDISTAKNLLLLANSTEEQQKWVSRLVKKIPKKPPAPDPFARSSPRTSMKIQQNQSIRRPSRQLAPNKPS
Sequence of Tie2 (h) (Q02763 23-1124): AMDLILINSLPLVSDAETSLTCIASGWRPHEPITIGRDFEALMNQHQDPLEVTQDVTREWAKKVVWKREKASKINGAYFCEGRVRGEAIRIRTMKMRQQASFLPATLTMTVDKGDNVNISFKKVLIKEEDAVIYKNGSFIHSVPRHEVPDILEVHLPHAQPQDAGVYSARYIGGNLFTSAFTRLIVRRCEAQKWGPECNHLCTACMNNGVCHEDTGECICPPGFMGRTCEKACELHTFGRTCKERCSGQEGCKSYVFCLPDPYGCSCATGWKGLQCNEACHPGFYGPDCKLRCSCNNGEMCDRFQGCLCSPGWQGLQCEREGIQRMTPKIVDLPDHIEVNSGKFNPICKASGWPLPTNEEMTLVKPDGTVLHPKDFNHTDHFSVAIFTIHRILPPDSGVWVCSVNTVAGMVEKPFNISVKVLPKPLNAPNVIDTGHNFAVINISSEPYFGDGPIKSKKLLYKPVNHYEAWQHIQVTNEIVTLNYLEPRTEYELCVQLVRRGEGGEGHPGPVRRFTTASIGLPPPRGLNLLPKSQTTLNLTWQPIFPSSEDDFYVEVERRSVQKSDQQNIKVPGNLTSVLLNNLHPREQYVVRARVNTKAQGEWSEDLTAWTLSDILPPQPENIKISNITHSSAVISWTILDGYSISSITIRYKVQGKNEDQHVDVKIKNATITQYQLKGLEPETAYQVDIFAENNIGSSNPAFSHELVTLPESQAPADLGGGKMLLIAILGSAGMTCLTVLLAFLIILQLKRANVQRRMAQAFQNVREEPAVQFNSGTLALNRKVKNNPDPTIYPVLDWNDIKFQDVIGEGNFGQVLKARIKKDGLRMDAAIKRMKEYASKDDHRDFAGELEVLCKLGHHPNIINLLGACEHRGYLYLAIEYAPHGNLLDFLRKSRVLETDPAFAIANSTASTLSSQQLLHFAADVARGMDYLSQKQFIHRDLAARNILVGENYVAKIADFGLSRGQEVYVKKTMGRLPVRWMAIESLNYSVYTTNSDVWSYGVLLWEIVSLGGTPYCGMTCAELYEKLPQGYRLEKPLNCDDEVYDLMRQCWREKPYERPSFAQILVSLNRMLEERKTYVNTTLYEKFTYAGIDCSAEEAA
Sequence of ROCK-I (h) (Q13464 whole entry): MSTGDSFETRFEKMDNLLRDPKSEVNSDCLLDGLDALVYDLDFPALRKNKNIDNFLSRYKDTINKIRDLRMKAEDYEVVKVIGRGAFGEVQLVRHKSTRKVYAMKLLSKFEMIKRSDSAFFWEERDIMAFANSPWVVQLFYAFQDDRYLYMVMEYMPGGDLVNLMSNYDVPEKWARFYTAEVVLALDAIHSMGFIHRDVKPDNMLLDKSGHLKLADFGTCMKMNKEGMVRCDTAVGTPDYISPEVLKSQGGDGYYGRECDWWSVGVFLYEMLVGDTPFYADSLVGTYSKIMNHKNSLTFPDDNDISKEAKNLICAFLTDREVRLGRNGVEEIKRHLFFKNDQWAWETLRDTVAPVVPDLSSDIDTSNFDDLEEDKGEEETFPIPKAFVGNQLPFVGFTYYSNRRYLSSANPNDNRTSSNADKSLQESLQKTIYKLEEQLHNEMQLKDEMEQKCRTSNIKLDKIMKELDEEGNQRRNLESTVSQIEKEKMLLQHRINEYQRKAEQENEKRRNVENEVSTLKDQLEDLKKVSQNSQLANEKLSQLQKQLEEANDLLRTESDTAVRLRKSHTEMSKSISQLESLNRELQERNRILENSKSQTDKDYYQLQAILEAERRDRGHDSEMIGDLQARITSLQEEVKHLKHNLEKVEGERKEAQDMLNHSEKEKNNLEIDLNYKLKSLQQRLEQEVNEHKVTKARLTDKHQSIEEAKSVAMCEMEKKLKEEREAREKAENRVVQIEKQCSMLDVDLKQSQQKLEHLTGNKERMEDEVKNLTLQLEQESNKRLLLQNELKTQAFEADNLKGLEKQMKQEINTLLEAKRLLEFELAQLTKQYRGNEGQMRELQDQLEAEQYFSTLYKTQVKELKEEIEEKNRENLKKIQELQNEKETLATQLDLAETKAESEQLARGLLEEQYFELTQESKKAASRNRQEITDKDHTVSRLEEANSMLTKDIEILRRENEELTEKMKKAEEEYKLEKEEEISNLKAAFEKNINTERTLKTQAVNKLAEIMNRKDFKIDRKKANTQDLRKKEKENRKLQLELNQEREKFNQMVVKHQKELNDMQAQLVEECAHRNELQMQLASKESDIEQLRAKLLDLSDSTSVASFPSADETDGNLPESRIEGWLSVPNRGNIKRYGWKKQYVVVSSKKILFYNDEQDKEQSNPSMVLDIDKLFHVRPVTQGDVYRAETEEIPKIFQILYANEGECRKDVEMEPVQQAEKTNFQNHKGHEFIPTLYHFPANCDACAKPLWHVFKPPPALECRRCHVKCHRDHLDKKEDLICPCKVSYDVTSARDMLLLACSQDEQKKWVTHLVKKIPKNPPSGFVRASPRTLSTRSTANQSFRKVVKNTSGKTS
Sequence of FGFR3 (h) (P22607 23-806): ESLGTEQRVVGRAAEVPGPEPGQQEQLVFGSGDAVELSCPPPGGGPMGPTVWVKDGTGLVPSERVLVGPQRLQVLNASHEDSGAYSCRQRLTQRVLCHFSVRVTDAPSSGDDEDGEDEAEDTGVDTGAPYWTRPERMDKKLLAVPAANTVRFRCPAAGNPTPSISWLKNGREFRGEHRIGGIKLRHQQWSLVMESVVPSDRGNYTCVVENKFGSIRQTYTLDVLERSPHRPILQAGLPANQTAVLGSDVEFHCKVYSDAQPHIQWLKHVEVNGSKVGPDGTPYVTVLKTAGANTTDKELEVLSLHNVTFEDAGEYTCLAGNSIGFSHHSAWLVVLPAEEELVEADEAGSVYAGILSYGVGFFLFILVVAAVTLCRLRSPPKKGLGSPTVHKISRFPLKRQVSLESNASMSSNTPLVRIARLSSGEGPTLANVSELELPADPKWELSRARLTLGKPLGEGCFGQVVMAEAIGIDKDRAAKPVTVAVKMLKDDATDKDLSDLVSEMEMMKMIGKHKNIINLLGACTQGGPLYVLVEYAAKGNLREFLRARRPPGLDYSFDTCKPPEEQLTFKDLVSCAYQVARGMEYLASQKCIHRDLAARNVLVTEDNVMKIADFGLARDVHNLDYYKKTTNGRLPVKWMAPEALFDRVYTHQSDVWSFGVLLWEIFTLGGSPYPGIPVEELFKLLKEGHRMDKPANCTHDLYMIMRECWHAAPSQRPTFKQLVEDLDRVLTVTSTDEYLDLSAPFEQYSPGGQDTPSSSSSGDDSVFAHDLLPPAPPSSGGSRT
T4 sequence (P31751 whole entry): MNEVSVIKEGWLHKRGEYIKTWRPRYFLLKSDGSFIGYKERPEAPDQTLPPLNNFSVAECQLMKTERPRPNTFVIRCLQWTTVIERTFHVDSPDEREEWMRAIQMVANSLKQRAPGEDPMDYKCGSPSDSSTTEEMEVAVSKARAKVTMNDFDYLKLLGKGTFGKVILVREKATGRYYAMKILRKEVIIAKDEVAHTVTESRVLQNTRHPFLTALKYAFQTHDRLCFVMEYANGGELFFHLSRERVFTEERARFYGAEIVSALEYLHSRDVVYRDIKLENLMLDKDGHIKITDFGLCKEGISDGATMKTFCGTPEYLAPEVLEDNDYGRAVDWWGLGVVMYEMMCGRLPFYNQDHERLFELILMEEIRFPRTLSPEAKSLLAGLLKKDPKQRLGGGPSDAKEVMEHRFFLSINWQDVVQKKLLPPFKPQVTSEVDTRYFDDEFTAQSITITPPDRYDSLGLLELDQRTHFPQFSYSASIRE

Row | Sequence | % activity [1] | % activity [2] | % activity [3] | % activity [4] | % activity [5] | % activity [6] | % activity [7] | % activity [8] | % activity [9] | % activity [10] | % activity [11] | % activity [12] | % activity [13] | % activity [14] | % activity [15] | % activity [16] | % activity [17]
1 | FAKLAARLYRKALARQLGVAA [MMI-0300] | 86% | 91% | 18% | 14% | 84% | 83% | 73% | 48% | 84% | 84% | 88% | 79% | 74% | 26% | 5% | 48% | –
2 | HRRIKAWLKKIKALARQLGVAA (Mammalian) [MMI-0500] | 29% | 65% | 42% | 12% | 17% | 73% | 38% | 18% | 73% | 21% | 62% | 17% | 2% | 22% | 12% | 10% | 10%
3 | KAFAKLAARLYRKALARQLGVAA [MMI-0400] | 78% | 87% | 24% | 18% | 18% | 89% | 90% | 44% | 36% | 98% | 76% | 73% | 77% | 21% | 8% | 37% | 0%
4 | YARAAARQARAKALNRQLGVA (Mammalian) [MMI-0200] | – | – | 123% | 73% | 99% | – | – | 98% | 141% | 250% | 101% | – | 85% | 53% | 7% | 98% | 208%
